Measured values from US20220096653A1, “CONJUGATE COMPRISING LIGAND AND CEACAM5 ANTIBODY FAB FRAGMENT” (ASTELLAS PHARMA INC., priority 2019, published 2022).
One block for each binder: values may come before it.

Target: T1, CEACAM5 (R&D Systems, 4128-CM-050) (human, UniProt P06731 35-685)
T1 construct: Immobilised on the ELISA plate; also called human CEACAM5
T1 sequence (looked up): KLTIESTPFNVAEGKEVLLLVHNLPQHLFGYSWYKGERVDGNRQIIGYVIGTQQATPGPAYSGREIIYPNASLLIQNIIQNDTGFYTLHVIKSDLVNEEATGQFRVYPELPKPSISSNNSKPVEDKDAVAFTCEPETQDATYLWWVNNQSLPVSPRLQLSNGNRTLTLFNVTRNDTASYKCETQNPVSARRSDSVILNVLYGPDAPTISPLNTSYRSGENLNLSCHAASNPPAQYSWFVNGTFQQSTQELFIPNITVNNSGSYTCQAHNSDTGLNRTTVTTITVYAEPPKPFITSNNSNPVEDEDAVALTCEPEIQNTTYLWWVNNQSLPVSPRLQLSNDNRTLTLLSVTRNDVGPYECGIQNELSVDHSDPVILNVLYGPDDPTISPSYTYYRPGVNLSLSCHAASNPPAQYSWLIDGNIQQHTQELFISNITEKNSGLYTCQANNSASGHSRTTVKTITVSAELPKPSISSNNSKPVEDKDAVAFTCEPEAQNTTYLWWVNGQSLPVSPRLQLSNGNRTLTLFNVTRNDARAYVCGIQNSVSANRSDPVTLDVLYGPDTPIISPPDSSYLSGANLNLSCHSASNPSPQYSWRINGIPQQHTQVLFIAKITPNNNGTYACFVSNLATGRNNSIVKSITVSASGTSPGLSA
Assay: ELISA on immobilised CEACAM5, 4-parameter fit, duplicate
Description: Each anti-human CEACAM5 antibody Fab fragment conjugate prepared in Example 2 was subjected to ELISA to evaluate the binding activity thereof to CEACAM5. In the present test, a phosphate buffer (Nacalai Tesque Inc., 0.1 mol/L-Phosphate Buffer Solution (pH 7.2)) prepared to 10 mM by diluting 10-fold with distilled water was used as a solvent for an antigen immobilization liquid, and 20×PBS/Tween 20 Buffer (Thermo Fisher Scientific Inc., 28352) diluted 20-fold with distilled water was used as a wash liquid. In addition, for bovine serum albumin (BSA) used in the present test, 30% Bovine Serum Albumin solution (Sigma-Aldrich, Inc., A9576-50ML) was added in an appropriate proportion for use. CEACAM5 (R&D Systems, 4128-CM-050) was diluted with a 10 mM phosphate buffer (pH 7.2) to 0.1 μg/mL, and added to a Nunc MaxiSorp White 384 plate (Nunc, 4603272) at 30 μL per well, and the plate was incubated overnight at 4° C. for immobilization. The CEACAM5 immobilization liquid was removed by reverse centrifugation, and then blocking was carried out by adding a PBS/Tween 20 buffer containing 5.0% BSA. Thereafter, the blocking solution was removed by reverse centrifugation, a solution of each CEACAM5 antibody Fab² fragment conjugate described above or a Fab² fragment having no labeling portion (PB009-01) as a control at about 10000 ng/mL was diluted in 14 steps by 3-fold dilution using a PBS/Tween 20 buffer containing 1.0% BSA, and 30 μL was added per well and incubated at room temperature for 60 minutes. The plate was washed 3 times with a PBS/Tween 20 buffer, and Horseradish Peroxidase (HRP)-labeled goat anti-human IgG (H+L chain) antibody (MBL Life Sciences, 206) diluted 1000-fold using a PBS/Tween 20 buffer containing 5.0% BSA was added at 30 μL per well and incubated at room temperature for 30 minutes. The plate was washed 3 times with a PBS/Tween 20 buffer, and ECL Prime Western Blotting DETECTION Reagent (GE Healthcare, RPN2232) as a substrate was added at 30 μL per well. The substrate was incubated at room temperature for 15 minutes, and then a signal value thereof was measured using an Envision counter (PerkinElmer, Inc.).
The test for each antibody was carried out in duplicate, and an EC₅₀ value was calculated using a 4-parameter logistic curve model.

B1: (Y-S1-X)p-Fab^2 with Y Gd/DOTA, S1 spacer (b), X -Gly-Lys*-Z2(#N)- (Fab, V domains shown)
VH: EVQLVESGGGLVQPGGSLRLSCAASGFNIRDTYMHWVRQAPGKGLEWVARIDPANGNSRYVPKFQGRFTISADTSRNTAYLQMNSLRAEDTAVYYCAPFGYYVSDYAMAYWGQGTLVTVSS
VL: DIQLTQSPSSLSASVGDRVTITCRAGESVDIFGVGFLHWYQQKPGKAPKLLIYRASNLESGIPSRFSGSGSRTDFTLTISSLQPEDFATYYCQQTNEDPYTFGQGTKVEIKR
modifications: labeling may sit on this chain; sites not stated; labeling portion (MW 950) on amino groups of the Fab, sites and chain not stated; 1-3 per Fab by MS
notes: also called Ex-No 27; conjugate 27
- EC50: 0.46 nM

B2: (Y-S1-X)p-Fab^2 with Y Gd/DOTA, S1 -NH-(CH2)3-C(═O)-, X -Gly-Tyr*-CH2-C(═O)-NH-(CH2)2-Z1(#N)- (Fab, V domains shown)
VH: B1 VH
VL: B1 VL
modifications: labeling may sit on this chain; sites not stated; labeling portion (MW 1045) on amino groups of the Fab, sites and chain not stated; 1-3 per Fab by MS
notes: also called Ex-No 36; conjugate 36
- EC50: 0.38 nM

B3: (Y-S1-X)p-Fab^2 with Y Gd/DOTA, S1 - (bond), X -Gly-Tyr*-CH2(═O)-NH-(CH2)2-Z1(#N)- (Fab, V domains shown)
VH: B1 VH
VL: B1 VL
modifications: labeling may sit on this chain; sites not stated; labeling portion (MW 960) on amino groups of the Fab, sites and chain not stated; 1-4 per Fab by MS
notes: also called Ex-No 21; conjugate 21
- EC50: 0.27 nM

B5: (Y-S1-X)p-Fab^2 with Y Gd/DOTA, S1 -NH-(CH2)2-C(═O)-, X -Gly-Lys*-Z2(#N)- (Fab, V domains shown)
VH: B1 VH
VL: B1 VL
modifications: labeling may sit on this chain; sites not stated; labeling portion (MW 896) on amino groups of the Fab, sites and chain not stated; 1-3 per Fab by MS
notes: also called Ex-No 22; conjugate 22
- EC50: 0.32 nM

B8: (Y-S1-X)p-Fab^2 with Y Gd/DOTA, S1 spacer (e), X -Met-Gly-Lys*-Z2(#N)- (Fab, V domains shown)
VH: B1 VH
VL: B1 VL
modifications: labeling may sit on this chain; sites not stated; labeling portion (MW 1095) on amino groups of the Fab, sites and chain not stated; 1-2 per Fab by MS
notes: also called Ex-No 32; conjugate 32
- EC50: 0.37 nM

B10: (Y-S1-X)p-Fab^2 with Y Gd/DOTA, S1 - (bond), X -Gly-(naph-Ala)-Lys*-Z2(#S)- (Fab, V domains shown)
VH: B1 VH
VL: B1 VL
modifications: labeling may sit on this chain; sites not stated; labeling portion (MW 1123) on amino groups of the Fab, sites and chain not stated; 1-2 per Fab by MS
notes: also called Ex-No 31; conjugate 31
- EC50: 0.3 nM

B11: (Y-S1-X)p-Fab^2 with Y Gd/DOTA, S1 spacer (c), X -Gly-Lys*-Z2(#N)- (Fab, V domains shown)
VH: B1 VH
VL: B1 VL
modifications: labeling may sit on this chain; sites not stated; labeling portion (MW 908) on amino groups of the Fab, sites and chain not stated; 1-3 per Fab by MS
notes: also called Ex-No 28; conjugate 28
- EC50: 0.36 nM

B13: (Y-S1-X)p-Fab^2 with Y Gd/DOTA, S1 - (bond), X -Gly-(diph-Ala)-Lys*-Z2(#S)- (Fab, V domains shown)
VH: B1 VH
VL: B1 VL
modifications: labeling may sit on this chain; sites not stated; labeling portion (MW 1149) on amino groups of the Fab, sites and chain not stated; 1-3 per Fab by MS
notes: also called Ex-No 30; conjugate 30
- EC50: 0.31 nM

B14: [Gd/DOTA-[2,5-(1,2,3,4-tetrahydroisoquinoline)]-C(═O)-Met-Gly-Lys*-Z2(#N)]p-Fab^2 (Fab, V domains shown)
VH: B1 VH
VL: B1 VL
modifications: labeling may sit on this chain; sites not stated; labeling portion (MW 1115) on amino groups of the Fab, sites and chain not stated; 1-2 per Fab by MS
notes: also called Ex-No 33; Conjugate No. 33
- EC50: 0.33 nM

B16: (Y-S1-X)p-Fab^2 with Y Gd/DOTA, S1 -NH-(CH2CH2O)3-CH2-C(═O)-NH-CH2-(1,3-Ph)-C(═O)-, X -Gly-Lys*-Z2(#S)- (Fab, V domains shown)
VH: B1 VH
VL: B1 VL
modifications: labeling may sit on this chain; sites not stated; labeling portion (MW 1248) on amino groups of the Fab, sites and chain not stated; 1-2 per Fab by MS
notes: also called Ex-No 25; conjugate 25
- EC50: 0.32 nM

B17: [Gd/DOTA-NH-(CH2CH2O)3-CH2-C(═O)-NH-CH2-(1,3-Ph)-C(═O)-Met-Gly-Lys*-Z2(#S)]p-Fab^2 (Fab, V domains shown)
VH: B1 VH
VL: B1 VL
modifications: labeling may sit on this chain; sites not stated; labeling portion (MW 1380) bound via 2-iminothiolane-treated amino groups of the Fab, sites and chain not stated; 1 per Fab by MS
notes: also called Ex-No 35; Conjugate No. 35
- EC50: 0.43 nM

Now those with a lower EC50, led by results:

- EC50: 0.22 nM
B4: (Y-S1-X)p-Fab^2 with Y Gd/DOTA, S1 - (bond), X -Gly-Lys*-Z2(#N)- (Fab, V domains shown)
VH: B1 VH
VL: B1 VL
modifications: labeling may sit on this chain; sites not stated; labeling portion (MW 825) on amino groups of the Fab, sites and chain not stated; 1-3 per Fab by MS
notes: also called Ex-No 20; conjugate 20

- EC50: 0.13 nM
B6: [Gd/DOTA-NH-(CH2CH2O)3-CH2-C(═O)-NH-CH2-(1,3-Ph)-C(═O)-Gly-Lys*-Z2(#N)]p-Fab^2 (Fab, V domains shown)
VH: B1 VH
VL: B1 VL
modifications: labeling may sit on this chain; sites not stated; labeling portion (MW 1147) on amino groups of the Fab, sites and chain not stated; 1-3 per Fab by MS
notes: also called Ex-No 15; Conjugate No. 15

- EC50: 0.23 nM
B7: (Y-S1-X)p-Fab^2 with Y Gd/DOTA, S1 - (bond), X -Gly-Tyr-NH-(CH2)5-Z1(#S)- (Fab, V domains shown)
VH: B1 VH
VL: B1 VL
modifications: labeling may sit on this chain; sites not stated; labeling portion (MW 1045) on amino groups of the Fab, sites and chain not stated; 1-3 per Fab by MS
notes: also called Ex-No 37; conjugate 37

- EC50: 0.11 nM
B9: [Gd/4arm-DOTA-CH2-(1,4-Ph)-NH-C(═S)-Gly-Phe-Lys*-Z2(#N)]p-Fab^2 (Fab, V domains shown)
VH: B1 VH
VL: B1 VL
modifications: labeling may sit on this chain; sites not stated; labeling portion (MW 1136) on amino groups of the Fab, sites and chain not stated; 1-3 per Fab by MS
notes: also called Ex-No 12; Conjugate No. 12

- EC50: 0.14 nM
B12: [Gd/DOTA-NH-CH2-(1,3-Ph)-C(═O)-Asp-Gly-Lys*-Z2(#N)]p-Fab^2 (Fab, V domains shown)
VH: B1 VH
VL: B1 VL
modifications: labeling may sit on this chain; sites not stated; labeling portion (MW 1073) on amino groups of the Fab, sites and chain not stated; 1-3 per Fab by MS
notes: also called Ex-No 11; Conjugate No. 11

- EC50: 0.18 nM
B15: (Y-S1-X)p-Fab^2 with Y Gd/DOTA, S1 -NH-CH2-(1,4-Ph)-C(═O)-, X -Met-Gly-Lys*-Z2(#S)- (Fab, V domains shown)
VH: B1 VH
VL: B1 VL
modifications: labeling may sit on this chain; sites not stated; labeling portion (MW 1190) on amino groups of the Fab, sites and chain not stated; 1-3 per Fab by MS
notes: also called Ex-No 38; conjugate 38
